In US20220105163A1 (UNITED BIOMEDICAL, published 2022):

Tests used:
[1] = biological target: T1, Recombinant His-tagged human IL-6Rα (human, UniProt P08887 20-365, limits assumed); assay: competition ELISA: inhibition of IL-6 binding to coated IL-6Rα (cis-binding)
T1 construct: Bought from GenScript; also called sIL-6Rα; not shown: His tag
T1 sequence (looked up): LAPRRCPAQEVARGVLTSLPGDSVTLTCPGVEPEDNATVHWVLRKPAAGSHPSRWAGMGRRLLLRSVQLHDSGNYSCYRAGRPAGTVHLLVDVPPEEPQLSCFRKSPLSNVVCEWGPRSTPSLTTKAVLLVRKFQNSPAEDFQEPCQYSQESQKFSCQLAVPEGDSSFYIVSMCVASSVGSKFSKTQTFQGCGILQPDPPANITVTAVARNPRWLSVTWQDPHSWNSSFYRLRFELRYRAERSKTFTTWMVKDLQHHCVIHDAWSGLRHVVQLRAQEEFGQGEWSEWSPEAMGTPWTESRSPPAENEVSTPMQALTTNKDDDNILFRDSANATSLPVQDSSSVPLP

[2] = biological target: T1, Recombinant His-tagged human IL-6Rα; assay: competition ELISA: inhibition of IL-6/IL-6Rα complex binding to coated gp130-Fc (trans-binding)

B1: Tocilizumab (antibody, V domains shown)
VH: QVQLQESGPGLVRPSQTLSLTCTVSGYSITSDHAWSWVRQPPGRGLEWIGYISYSGITTYNPSLKSRVTMLRDTSKNQFSLRLSSVTAADTAVYYCARSLARTTAMDYWGQGSLVTVSS
VL: DIQMTQSPSSLSASVGDRVTITCRASQDISSYLNWYQQKPGKAPKLLIYYTSRLHSGVPSRFSGSGSGTDFTFTISSLQPEDIATYYCQQGNTLPYTFGQGTKVEIKR
With B1 the IC50 [1] was 0.935 µg/mL and the IC50 [2] was 0.1 µg/mL.
